Target: Francisella tularensis ssp. holarctica macrophage locus protein A (MglA) (F. tularensis ssp. holarctica) (UniProt Q5NFG1)
Assay: cross-linking + SEC

## Francisella tularensis ssp. holarctica macrophage locus protein A (MglA) (from UniProt Q5NFG1 1-205) (natural protein)
  stoichiometry N: 2

From PMC4488300
